In the supplement of paper PMC10724198:
± gives the standard deviation of the averaged measurements.

System: Saccharomyces cerevisiae
Test: protein stability index of tFT-peptide fusion (C-terminal peptide) (PSI (0-1 scale)); higher = more stable (slower turnover)
Details: genetic background: wild type; temperature: 30 C
Protocol: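 Multiplexed protein stability (MPS) profiling in S. cerevisiae. Random 12-aa peptides (tFT-X12 library) are fused to the C-terminus of a sfGFP-mCherry tandem fluorescent timer, after mCherry and a GGGS linker. Cells are FACS-sorted into 8 mCherry/sfGFP bins and deep-sequenced. The protein stability index (PSI) is the read-weighted bin average, scaled from 0 (unstable) to 1 (stable). Only peptides with >10 reads are reported; cells were grown at 30 °C in SC-His with glucose.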
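Note: PSI is a weighted mean of sequencing reads over stability bins, variants kept only with over 10 reads, mCherry proximal and sfGFP distal, peptide attached via GGGS linker.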

Sequence	protein stability index
PLHLPPFRPSPR	0.676 ± 0.12
LFITTSLFRPFA	0.53 ± 0.015
NKKNKKRIGRNT	0.736 ± 0.034
HPPLRPPLGSRF	0.868 ± 0.045
PPPVPPLGPSRA	0.693 ± 0.044
NFRHSVTTSEVN	0.737 ± 0.013
HVTFPLRRTFRR	0.697 ± 0.013
VGRSAAGRLELI	0.679 ± 0.014
FGGGSHRRGRCR	0.68 ± 0.018
GTCGDRGRGGER	0.559 ± 0.023
KTTKEKESQEKN	0.723 ± 0.029
KKKKKRITKIKN	0.7089 ± 0.0018
WLVRNVVGGGVC	0.722 ± 0.061
QTKSLLTPLLNL	0.65 ± 0.018
NKKKYEIKLIME	0.641 ± 0.06
PLLPRLNIPREF	0.658 ± 0.056
HFAAVFATSISG	0.675 ± 0.02
KDGMATKCIAYT	0.657 ± 0.011
PPPPLRPPAAPP	0.639 ± 0.005
GRGGVGWGEWDR	0.729 ± 0.056
LCLTLPSDSSAP	0.841 ± 0.073
VPVSNLCERTAG	0.648 ± 0.011
APPFRLLPLPSP	0.7573 ± 0.005
SPPSFLPLPLPS	0.675 ± 0.033
GGSFRLLAVVFP	0.635 ± 0.044

Sequence	protein stability index
PPLPLTLRSSPS	0.677 ± 0.031
PPRPPPHPAPLS	0.755 ± 0.019
KQRQTKTIRGPR	0.672 ± 0.059
IWGLSGGKKLLW	0.718 ± 0.043
APPPAYGPPPPP	0.692 ± 0.044
PPPPLPPLSPSP	0.7604 ± 0.0068
YPCPPLLISSPP	0.709 ± 0.051
PLLPPLPVSPLP	0.704 ± 0.038
PPSRPPPRLLFA	0.659 ± 0.048
VRRGVGAVVFGG	0.655 ± 0.08
PRSTLLPRSSSC	0.654 ± 0.028
WRMGCSVRGVVG	0.693 ± 0.055
GGRFGMWRGGQA	0.7245 ± 0.0064
APPRPPPPSPIP	0.726 ± 0.057
QSNEHVRQSETS	0.682 ± 0.03
GASCRDCVTRGS	0.745 ± 0.042
KKKKKKKNKKQE	0.7456 ± 0.005
RVPRYEKIVSSI	0.658 ± 0.013
GVVFGWAGYKGT	0.677 ± 0.034
RHSCLRFPPLHL	0.694 ± 0.1
EPLGSGLQCTAG	0.731 ± 0.005
ARRSAGGAAVPG	0.624 ± 0.0098
HSGGRVYSYACI	0.6851 ± 0.0017
PSGICVLSPRYG	0.7 ± 0.016
WGRGETLCSSVP	0.72 ± 0.011

Sequence	protein stability index
WVGGGLVVFGWK	0.6944 ± 0.0025
SVQWPITIEVWK	0.631 ± 0.014
SKLRKGNSIDDR	0.625 ± 0.016
SLQPRRGQPVTG	0.711 ± 0.0078
PVPPLRRFPPLF	0.648 ± 0.036
VLTGQQSVFGAK	0.752 ± 0.096
LSYSFGCEFLWL	0.674 ± 0.033
STPLPPLSLPLF	0.685 ± 0.016
LVLTLAPWILFD	0.6784 ± 0.0015
RRSVQLQSALFI	0.736 ± 0.069
PSPPLPPPPSGP	0.677 ± 0.067
PHPPCRPYPAGS	0.701 ± 0.031
RFCVTASDLREF	0.751 ± 0.057
PDSAGAALSLSS	0.695 ± 0.027
KRRSHRQHSRRR	0.559 ± 0.032
ARRGAGGGHKGD	0.673 ± 0.038
PGLAGGASQEGR	0.58 ± 0.085
EVTDSVKTEPAT	0.6463 ± 0.0043
MQSRWAQVEGKE	0.673 ± 0.055
LLLFPRFPPPPL	0.711 ± 0.038
PAPAPPSHFQER	0.717 ± 0.043
PAPPPPPPALLP	0.677 ± 0.067
LLSSLLLDQPYR	0.6455 ± 0.0036
KKKKNKNKRTRK	0.662 ± 0.038
KRVTYKRIRSKI	0.799 ± 0.029

Sequence	protein stability index
QGTHRGSGGVTE	0.716 ± 0.023
VRRVHAMVLLGG	0.65 ± 0.014
WGWGRWEMVGRT	0.695 ± 0.011
CPLGHLCVIRFG	0.59 ± 0.012
PRFFTRYRCYSA	0.793 ± 0.064
PLPPTPSLDPSS	0.6992 ± 0.0033
RSYGVGYEGDKG	0.719 ± 0.054
RNDAARLLGESG	0.698 ± 0.018
KIFRNKHENDLK	0.695 ± 0.026
RPSPPPTPPGPH	0.656 ± 0.039
HLPPPPTLPPFP	0.6905 ± 0.0068
VGMVTADGRLAT	0.692 ± 0.043
SQLKHLPPDREC	0.679 ± 0.016
SPPPTSQHSGPP	0.657 ± 0.042
DRGSLVASGGGG	0.713 ± 0.015
KRKKKRRKETLY	0.641 ± 0.037
LNLSIRDVTSSG	0.657 ± 0.013
PLPLLPTNPSPP	0.636 ± 0.0096
CRNSTKFAVLRE	0.654 ± 0.012
LWFPLCRLVRRD	0.682 ± 0.025
SASVARSRRCVR	0.612 ± 0.057
ERDDRSFEWPRQ	0.69 ± 0.025
PPPSFPPFFPSF	0.731 ± 0.014
